Experiment [1] has as its target T1, GST-tagged α4 repeat region of α-spectrin (human, UniProt P02549 370-475).
T1 sequence (looked up): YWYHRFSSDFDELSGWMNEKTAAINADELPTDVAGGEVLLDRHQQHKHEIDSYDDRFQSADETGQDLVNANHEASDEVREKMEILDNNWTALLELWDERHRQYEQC
The experiment is described as follows: SPR. A general note: SPR reads the build-up and loss of mass on a sensor chip optically.

Experiment [2] has as its target GST-tagged 16 kDa domain of protein 4.1R (human). The experiment is described as follows: SPR.

Sequence of GST-tagged 16 kDa domain of protein 4.1R (human) (P11171 whole entry, the tested form may be a part): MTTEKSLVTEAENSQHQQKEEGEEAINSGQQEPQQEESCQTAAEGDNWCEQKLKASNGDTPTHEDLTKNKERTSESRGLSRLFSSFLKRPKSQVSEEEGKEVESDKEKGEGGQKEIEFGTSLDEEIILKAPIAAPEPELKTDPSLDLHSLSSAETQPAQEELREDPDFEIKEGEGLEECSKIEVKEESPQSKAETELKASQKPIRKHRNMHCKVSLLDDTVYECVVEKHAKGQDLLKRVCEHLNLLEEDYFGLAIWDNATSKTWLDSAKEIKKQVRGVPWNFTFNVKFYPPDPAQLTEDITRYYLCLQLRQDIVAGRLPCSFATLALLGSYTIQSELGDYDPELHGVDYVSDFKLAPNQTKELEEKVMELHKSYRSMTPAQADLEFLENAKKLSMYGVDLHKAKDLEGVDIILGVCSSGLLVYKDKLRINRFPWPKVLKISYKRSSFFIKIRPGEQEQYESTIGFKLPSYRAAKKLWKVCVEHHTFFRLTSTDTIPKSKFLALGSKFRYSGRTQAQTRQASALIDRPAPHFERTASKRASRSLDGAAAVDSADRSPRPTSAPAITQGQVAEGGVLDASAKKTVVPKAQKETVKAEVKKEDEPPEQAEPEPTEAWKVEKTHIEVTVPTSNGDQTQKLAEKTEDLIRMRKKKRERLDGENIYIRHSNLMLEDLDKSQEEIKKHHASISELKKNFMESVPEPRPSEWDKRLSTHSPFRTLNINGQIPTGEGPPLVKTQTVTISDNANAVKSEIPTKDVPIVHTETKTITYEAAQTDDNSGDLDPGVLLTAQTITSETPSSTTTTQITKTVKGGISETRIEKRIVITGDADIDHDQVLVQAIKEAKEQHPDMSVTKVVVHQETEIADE

B1: SBP1-C (analyte of the surface plasmon resonance) (domain or fragment)
chain: GKRKGYYLAKKQKKEQMLEQNPEQNPEQNPEQNAQQNAQQNAQQNAQQNSQQNTQQNTQQNTQQKTQQNPQQNAQKTHNNNPQPNPQQKQLLEKPKDKLL
As for B1, in experiment [1], the Ka turned out to be 5.7e+07 ± 1.28 M⁻¹; the Kd (in general, the equilibrium constant for the complex coming apart) was 20.4 nM; the koff (usually the rate constant with which the complex falls apart) amounted to 0.00031 ± 0.42 s⁻¹. In experiment [2], this molecule had a Ka of 1.73e+07 M⁻¹, a Kd of 58.5 nM and a koff of 0.000459 s⁻¹.
